The source of these data is patent US20100159468A1.

This assay deals with Arf1-V5 (human) (UniProt P84077). Description: cell-based or functional assay.
Chain of Arf1-V5 (human) (P84077 2-181): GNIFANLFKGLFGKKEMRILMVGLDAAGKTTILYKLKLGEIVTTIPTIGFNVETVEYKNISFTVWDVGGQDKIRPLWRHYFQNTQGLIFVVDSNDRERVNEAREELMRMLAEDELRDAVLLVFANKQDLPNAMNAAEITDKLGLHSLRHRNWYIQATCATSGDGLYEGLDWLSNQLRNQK

As for “GBF1-M832L-HA (hamster GBF1 with M830L, M832L relative to human GBF1, HA-tagged) (from UniProt Q9R1D7 1-1856)”, the Arf1-GTP level (GST-GGA3 pulldown, Western blot band intensity) in BFA-treated Vero cells expressing GBF1-M832L was 45 % of control and the Arf1-GTP level (GST-GGA3 pulldown, Western blot band intensity) in GCA-treated Vero cells expressing GBF1-M832L is 86 % of control.
